Laboratory results reported in the supplement of paper PMC9170038.

System: K4 kissing-loop RNA reporter
Test: apparent KD of K4 kissing-loop reporter; higher = weaker reporter binding
Conditions: Eterna round: R107
Experimental: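 RNA-MaP round R107: designed RNA switches with theophylline, tryptophan, arginine or FMN aptamers are transcribed on-chip within common flanks. They are titrated with a labelled K4 kissing-loop RNA reporter in RNA-MaP buffer (100 mM Tris pH 7.5, 80 mM KCl, 4 mM MgCl2), without ligand or with the indicated ligand. Median apparent KD per design.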

[1] = input ligand: theophylline 20 uM
[2] = input ligand: tryptophan 2.4 mM
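Note: bound reporter read as fluorescence of individual clusters on recovered sequencing chips by microscopy, with normalized cluster intensities fitted with a binding model.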

Sequence	apparent KD of K4 kissing-loop reporter (input ligand: FMN 200 uM)	apparent KD of K4 kissing-loop reporter (input ligand: arginine 13.2 mM)	apparent KD of K4 kissing-loop reporter (input ligand: none)	apparent KD of K4 kissing-loop reporter [1]	apparent KD of K4 kissing-loop reporter [2]
AGGGCUGAGAGCGAUACCAGCGGUAACUGUAUGGUCCAAUAGAGUGAUGUUUUAUAGAGCCGCCCUUGGCAGCGCAAUCUAUUAG [XTheo-B5]	245 nM	65.5 nM	424 nM	184 nM	129 nM
AGGUACAAAAGUACCGCUAGAUCCACGGAAGGAGCGCCGGAAACGGCAGGUAGGUCGCCGGGCAGUGAUGUUGCCGGAUCUAGCA [Omei KL Arginine A SS A v4]	161 nM	155 nM	231 nM	240 nM	198 nM
AGGUCCGAGCCCGGAAGGGCUCGGACCUGUUAGGAUAUGACGUUAUUCAGAAGGGAUGGGUGGAGUGAUGUUCCACCCGCAAGGG [#2 Same State - FMN A Attempt #9 (HarryS)]	70 nM	96.3 nM	111 nM	102 nM	86.5 nM
AGGUUUUGAUCAGGAUAUGCAUUGACGAUGAGAAUAUAGUGAUGUUAUAUACUACGAAUUAGUAAAGUAGAAGGGAUUGAGGUUU [SSFMNB.aB]	747 nM	565 nM	820 nM	898 nM	518 nM
AGUACAACUGCGGCCGCCACUCAACGCAGAUCAAAGAUCUGCAUUCACUCAGUGAUGUUGAGUGAGAGGACCGGGCAGUUGUACA [Omei KL Tryp B SS B v3]	855 nM	718 nM	742 nM	645 nM	166 nM
AGUACAGACACGGCCGCCACUCAGAAGAAGAUAGUAGUGAUGUUACUGAUGAUGAGAAUAAUAAAGAGGACCGGGUGUUGUGCAA [#09 K4 Tryptophan B Same State]	107 nM	100 nM	125 nM	113 nM	71.5 nM
AGUACGGACGCGGCCGCCACUCAGGAGAAGAAGGUAGUGAUGUUGCUUAUGGAGAGAUCAAUCAAGAGGACCGGGUGCCGUGCAA [#07 K4 Tryptophan B Same State]	285 nM	340 nM	426 nM	534 nM	338 nM
AGUAGUCGACAAGGAUAUACUAGGAGAGACGUUUGCACAUAACCUGCCCUACGAAGUGAUGUUUCGGUAGAAGGUGUUGGGCUGU [theeternabot_exclusion_KL_FMN_B_34]	96.5 nM	67 nM	87.6 nM	82.9 nM	71.5 nM
AGUCCACUCUAAAGAGUGGACCUAAGGGAUACCAGUGAUGUUGGUCACCCUUGGCAGCCCACUGUCAUCGAUAAAGAUGGCAGAA	120 nM	98.1 nM	114 nM	122 nM	116 nM
AGUGAUAUAUGAGGAUAUGGGUUUGUUAAAGAGUUAGUUUUAGUGUUGUUUGGUUAGUGAUGUUAUUUAGAAGGCGUGAGUGAUG [foopmullin]	97.2 nM	82.5 nM	76 nM	115 nM	72.9 nM
AGUGAUGUUGUGUUAUGUUAGUGAAGUGAUCGAGGACCGGUACGGCCGCCACUCGAGUGAUGAGUGAGUGAUGUUUGUUUAGGGA [popmullin]	1100 nM	674 nM	1140 nM	990 nM	486 nM
AGUGAUGUUUUUUUUAAGAGUGAUGUUUUUCGAGGACCGGUACGGCCGCCACUCGAGUGAUGAGUGCGGUGUUGUGAUGUUUAGU [ewmullin]	606 nM	402 nM	530 nM	475 nM	467 nM
AGUGAUGUUUUUUUUAAGAGUGAUGUUUUUCGAGGACCGGUACGGCCGCCACUCGAGUGAUGAGUGCGUUGUUGUGAUGUUUAGU [#11 K4 Tryptophan A Exclusion]	438 nM	362 nM	473 nM	413 nM	246 nM
AGUGGAACUUGCAGGUAUCCACAACUGGAUACCAGCUCGGAAACGAGCCCUUGGCAGCCAGAUCUUGCAGUGAUGUUGCAAGUUC [Design10]	392 nM	323 nM	392 nM	412 nM	381 nM
AGUGUGCAAAAGCACACUCAGAACAAGGACAAGGAUAUCUACUAAUAGAGAAGGUGUCCUUUCCUUAGUGAUGUUAAGGAUCUGA [Omei KL FMN A SS D v4]	270 nM	424 nM	596 nM	486 nM	564 nM
AGUGUUAGGUUAGAUACCAGCCGUUCGUGAAUAGUCUUCGAACCGCCAGUGAUGUUGGCAGGCCCUUGGCAGCUAACAGAACAGA [Lagelare]	212 nM	199 nM	198 nM	159 nM	208 nM
